From the Human Domainome abundance scans (Beltran et al. 2025)
± gives the uncertainty stated by the source.

B1: Tyrosine-protein kinase Lck, residues 63 to 120; numbered along this chain, P06239 (parent)
chain: DNLVIALHSYEPSHDGDLGFEKGEQLRILEQSGEWWKAQSLTTGQEGFIPFNFVAKAN

Variants of: B1
Test: abundance fitness (aPCA) (normalised: wild type 0, dead -1); higher = more abundant; growth selection in yeast, the domain comes from the species named
Details: Homo sapiens

Abundance fitness of substitutions, site by site:
V54: D -0.926 ± 0.2; W -0.754 ± 0.11; F -0.6 ± 0.16; L -0.705 ± 0.1; T -0.45 ± 0.14; S -0.751 ± 0.11; E -0.709 ± 0.13; I -0.416 ± 0.11; M -0.715 ± 0.2; K -1.05 ± 0.21
N52: A -0.202 ± 0.082; V -0.709 ± 0.11; R -0.017 ± 0.073; E 0.029 ± 0.12; I -0.854 ± 0.22; D 0.001 ± 0.14; K 0.023 ± 0.14; Y -0.311 ± 0.12; L -0.624 ± 0.087; P -0.628 ± 0.12; F -0.589 ± 0.14; W -0.278 ± 0.12; H -0.189 ± 0.11; T -0.207 ± 0.12; C -0.303 ± 0.14; Q -0.021 ± 0.12; G -0.067 ± 0.07
K56: I -0.233 ± 0.13; D -0.108 ± 0.11; Y -0.138 ± 0.12; A 0.019 ± 0.085; T -0.095 ± 0.099; G -0.123 ± 0.066; L -0.217 ± 0.078; S -0.002 ± 0.085; N 0.055 ± 0.16; Q -0.174 ± 0.11; E 0.022 ± 0.12; W -0.095 ± 0.1; H 0.015 ± 0.12; F -0.087 ± 0.085; M -0.146 ± 0.11; V -0.118 ± 0.085; R -0.09 ± 0.067; C -0.117 ± 0.099; P 0.04 ± 0.095
E46: F -0.294 ± 0.13; N -0.217 ± 0.16; V 0.042 ± 0.083; I 0.131 ± 0.12; Y -0.316 ± 0.12; S 0.021 ± 0.091; Q -0.038 ± 0.11; P -0.745 ± 0.15; A -0.024 ± 0.089; K -0.05 ± 0.16; G -0.632 ± 0.076; H -0.448 ± 0.13; W -0.517 ± 0.1; L -0.157 ± 0.077; R -0.207 ± 0.068; C -0.023 ± 0.11; M -0.032 ± 0.11
F51: T -0.235 ± 0.12; A 0.104 ± 0.083; K 0.103 ± 0.11; C 0.163 ± 0.1; R 0.148 ± 0.076; E -0.022 ± 0.11; I 0.047 ± 0.18; H -0.055 ± 0.17; D -0.178 ± 0.12; M 0.137 ± 0.12; Y -0.037 ± 0.14; N 0.043 ± 0.15; P 0.07 ± 0.099; V -0.033 ± 0.082; L -0.221 ± 0.073; Q 0.021 ± 0.12; G 0.095 ± 0.071
A57: Y -0.176 ± 0.27; L 0.003 ± 0.095; E 0.092 ± 0.15
